{
  "source": "patent US20130243802A1",
  "about": "(ATLANTIC RESEARCH CENTER INSTITUTE, published 2013)",
  "key": {"[1]": {"biological_target": "T1, Recombinant Mycobacterium tuberculosis HSP70 (Aalto, Eire) (Mycobacterium tuberculosis, UniProt P9WMJ9 1-625)", "T1 construct": "also called mtHSP70; Mycobacteria HSP70", "T1 sequence (P9WMJ9 whole entry)": "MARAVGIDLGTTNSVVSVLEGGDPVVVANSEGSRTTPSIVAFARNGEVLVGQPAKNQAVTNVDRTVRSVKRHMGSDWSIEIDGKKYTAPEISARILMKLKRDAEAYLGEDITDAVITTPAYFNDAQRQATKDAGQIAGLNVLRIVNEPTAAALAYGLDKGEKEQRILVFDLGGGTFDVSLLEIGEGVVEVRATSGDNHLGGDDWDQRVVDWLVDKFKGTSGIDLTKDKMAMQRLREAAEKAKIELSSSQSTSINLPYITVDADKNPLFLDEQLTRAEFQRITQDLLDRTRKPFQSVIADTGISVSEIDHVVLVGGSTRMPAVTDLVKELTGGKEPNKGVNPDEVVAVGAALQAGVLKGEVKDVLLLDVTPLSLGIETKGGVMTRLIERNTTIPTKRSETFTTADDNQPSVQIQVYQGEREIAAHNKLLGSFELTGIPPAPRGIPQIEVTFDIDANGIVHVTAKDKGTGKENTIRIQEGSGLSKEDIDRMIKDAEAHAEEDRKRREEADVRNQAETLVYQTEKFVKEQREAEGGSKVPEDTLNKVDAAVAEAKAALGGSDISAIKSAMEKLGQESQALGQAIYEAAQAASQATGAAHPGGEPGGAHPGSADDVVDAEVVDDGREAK", "assay": "CHIEF gel"}, "E. coli orthologue, dnaK": {"biological_target": "E. coli orthologue, dnaK (E. coli, UniProt P0A6Y8 2-638)", "sequence (P0A6Y8 2-638 limits assumed)": "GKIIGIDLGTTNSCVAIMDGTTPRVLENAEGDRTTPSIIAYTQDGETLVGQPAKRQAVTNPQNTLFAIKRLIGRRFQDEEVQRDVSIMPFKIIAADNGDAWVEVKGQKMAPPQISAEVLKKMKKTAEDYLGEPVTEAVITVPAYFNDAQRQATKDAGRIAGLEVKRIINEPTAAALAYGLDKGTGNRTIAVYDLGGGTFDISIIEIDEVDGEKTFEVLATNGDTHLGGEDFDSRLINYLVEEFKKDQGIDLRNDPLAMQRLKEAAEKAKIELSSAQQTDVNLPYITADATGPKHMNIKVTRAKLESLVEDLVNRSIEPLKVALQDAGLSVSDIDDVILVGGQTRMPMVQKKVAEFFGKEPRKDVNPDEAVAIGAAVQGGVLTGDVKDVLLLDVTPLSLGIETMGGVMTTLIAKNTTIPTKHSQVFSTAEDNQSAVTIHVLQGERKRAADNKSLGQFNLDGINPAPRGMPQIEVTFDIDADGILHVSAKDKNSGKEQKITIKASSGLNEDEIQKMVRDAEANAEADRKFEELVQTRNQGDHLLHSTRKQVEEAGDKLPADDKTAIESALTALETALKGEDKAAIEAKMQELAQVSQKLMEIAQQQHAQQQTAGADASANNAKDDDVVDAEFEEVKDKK", "assay": "CHIEF (counter HSP isoelectric focusing) gel"}},
  "data": [
    {"binder": "bovine myelin basic protein (other, UniProt P02687 1-169, looked up, also called bMBP; MBP) AAQKRPSQRSKYLASASTMDHARHGFLPRHRDTGILDSLGRFFGSDRGAPKRGSGKDGHHAARTTHYGSLPQKAQGHRPQDENPVVHFFKNIVTPRTPPPSQGKGRGLSLSRFSWGAEGQKPGFGYGGRASDYKSAHKGLKGHDAQGTLSKIFKLGGRDSRSGSPMARR", "values": [
      {"measurement": "binding result", "setting": "[1]", "result": "binds"},
      {"measurement": "binding result", "setting": "E. coli orthologue, dnaK", "result": "no binding"}
    ]},
    {"binder": "PSQGKGRGLSLSRFSWGA (Synthetic peptide (New England Peptide))", "note": "[bMBP 100-117 peptide]", "values": [
      {"measurement": "binding result", "setting": "[1]", "result": "binds"}
    ]},
    {"binder": "ARTTHYGSLPQKAQGHR (range 62-78; Synthetic candidate peptide; also called MBP peptide 1 (62-78))", "note": "[MBP 62-78 peptide]", "values": [
      {"measurement": "binding result", "setting": "[1]", "result": "no binding"}
    ]}
  ]
}
